Substitutions are numbered along the chain they refer to. Numbers in names are those of the source. No end group written: not given here. TMR = tetramethyl rhodamine dye
Assays:
Experiment in all cases: fluorescence polarisation; 37 °C, after the 25 °C reading ramped over 7 min to 37 °C and 2 min incubation; unlabeled Rb^P against 1.5 nM TMR-E2F1^TD or 7.5 nM TMR-E7^LxCxE; 25 mM Tris pH 8.0, 200 mM NaCl, 1 mM DTT, 0.1% Tween-20; apparent Kd
Details in all cases: both partners purified
[1] = target: T1, retinoblastoma protein pocket domain (Rb^P), wild type (human, UniProt P06400 380-788)
T1 construct: also called WT Rb^P; WT
T1 sequence (looked up): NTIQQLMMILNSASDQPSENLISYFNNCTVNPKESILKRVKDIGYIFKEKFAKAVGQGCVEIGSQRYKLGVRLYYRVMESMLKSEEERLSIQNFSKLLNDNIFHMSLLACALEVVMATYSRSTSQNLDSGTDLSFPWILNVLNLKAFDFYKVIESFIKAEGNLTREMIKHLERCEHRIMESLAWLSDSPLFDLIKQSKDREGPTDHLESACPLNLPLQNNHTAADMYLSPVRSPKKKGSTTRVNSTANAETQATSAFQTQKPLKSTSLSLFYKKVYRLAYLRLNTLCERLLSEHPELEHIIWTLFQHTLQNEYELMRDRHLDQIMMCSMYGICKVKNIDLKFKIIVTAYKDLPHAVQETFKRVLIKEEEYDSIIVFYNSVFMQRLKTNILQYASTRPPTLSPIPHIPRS

Rb^P E533K = target: T2, Rb^P E533K (human, UniProt P06400 380-788, E533K)
T2 construct: also called variant 22
T2 sequence (looked up): T1 sequence (looked up) with E154K

Rb^P R656Q = target: T3, Rb^P R656Q (human, UniProt P06400 380-788, R656Q)
T3 construct: also called variant 48
T3 sequence (looked up): T1 sequence (looked up) with R277Q

Rb^P I703F = target: T4, Rb^P I703F (human, UniProt P06400 380-788, I703F)
T4 construct: also called variant 64
T4 sequence (looked up): T1 sequence (looked up) with I324F

Rb^P I703V = target: T5, Rb^P I703V (human, UniProt P06400 380-788, I703V)
T5 construct: also called variant 65
T5 sequence (looked up): T1 sequence (looked up) with I324V

B1: TMR-E2F1^TD, peptide of the E2F1 transactivation domain (peptide)
peptide: {TMR}-GEGIRDLFDCDFGDLTPLD
notes: also called E2F^TD; source: synthetic peptide, bought: GenScript
- Kd [1]: 22 nM
- Kd (Rb^P E533K): 1800 nM
- Kd (Rb^P R656Q): 325 nM
- Kd (Rb^P I703F): 396 nM
- Kd (Rb^P I703V): 99 nM

B2: TMR-E7^LxCxE, LxCxE peptide of the E7 oncoprotein from HPV (peptide)
peptide: DLYCYEQLN
modifications: also: TMR label, position not given here
notes: source: synthetic peptide, bought: GenScript
- Kd [1]: 12 nM
- Kd (Rb^P E533K): 14 nM
- Kd (Rb^P R656Q): 14 nM
- Kd (Rb^P I703F): 275 nM
- Kd (Rb^P I703V): 53 nM
